# Experimental data as given in patent US9957299B2, “Peptidomimetic macrocycles” (AILERON THERAPEUTICS, INC., priority 2010, dated 2018).
# Numbered stars: 1 amine (or outer) side, 2 acyl side, 3 side chain; on linkers, the order of the positions; unused ones are H or OH. Bridge positions count the residues as written; N and C are the ends. Square brackets hold non-standard residues; d marks the D form. Peptide text beside a SMILES is read from it. X2 = C[C@@](Cc1c[nH]c2cc(Cl)ccc12)(N[*:1])C(=O)[*:2]; Trp(6-Cl) = N[C@@H](Cc1c[nH]c2cc(Cl)ccc12)C(=O)O; R8 = C=CCCCCCC[C@@](C)(N)C(=O)O; S5 = C=CCCC[C@](C)(N)C(=O)O; Ac3c = NC1(C(=O)O)CC1; Aib = CC(C)(N)C(=O)O
# Assay: circular dichroism
# Details: aqueous, '0% TFE' (buffer not stated; general: 50 mM potassium phosphate pH 7 or water); pH ns; ns °C; 25-50 uM (general text)
row,Structure (SMILES),helicity
1,C=CCCCCCC[C@@](C)(NC(=O)[C@H](Cc1ccccc1)NC(=O)[C@@H](NC(=O)[C@H](CCC(N)=O)NC(=O)[C@H](CCC(N)=O)NC(=O)[C@H](CO)NC(=O)[C@H](CCC(N)=O)NC(C)=O)[C@@H](C)O)C(=O)N[C@@H](CC(N)=O)C(=O)N[C@@H](CC(C)C)C(=O)N[C@@H](Cc1c[nH]c2ccccc12)C(=O)N[C@@H](CCCNC(=N)N)C(=O)N[C@@H](CC(C)C)C(=O)N[C@@H](CC(C)C)C(=O)N[C@@](C)(CCCC=C)C(=O)N[C@@H](CCC(N)=O)C(=O)N[C@@H](CC(N)=O)C(N)=O,55%
2,CC(=O)N[C@@H](CC(C)C)C(=O)N[C@H](C(=O)N[C@@H](Cc1ccccc1)C(=O)N[C@@H](CCC(=O)O)C(=O)N[C@@H](Cc1c[nH]cn1)C(=O)N[C@@H](Cc1ccc(O)cc1)C(=O)N[C@@H](Cc1c[nH]c2ccccc12)C(=O)N[C@@H](C)C(=O)N[C@@H](CCC(N)=O)C(=O)N[C@@H](CC(C)C)C(=O)N[C@H](C(=O)N[C@@H](CO)C(N)=O)[C@@H](C)O)[C@@H](C)O,-0.5%
3,CC(=O)N[C@@H](CC(C)C)C(=O)N[C@H](C(=O)N[C@@H](Cc1ccccc1)C(=O)N[C@]1(C)CCCCCCC=CCCC[C@@](C)(C(=O)N[C@@H](CO)C(=O)N[C@@H](C)C(N)=O)NC(=O)[C@H](CC(C)C)NC(=O)[C@H](CCC(N)=O)NC(=O)[C@H](C)NC(=O)[C@H](Cc2c[nH]c3ccccc23)NC(=O)[C@H](Cc2ccc(O)cc2)NC(=O)[C@H](Cc2c[nH]cn2)NC1=O)[C@@H](C)O,80.8%
4,CC(=O)N[C@@H](CC(C)C)C(=O)N[C@H](C(=O)N[C@@H](Cc1ccccc1)C(=O)N[C@]1(C)CCCCCCCCCCC[C@@](C)(C(=O)N[C@@H](CO)C(=O)N[C@@H](C)C(N)=O)NC(=O)[C@H](CC(C)C)NC(=O)[C@H](CCC(N)=O)NC(=O)[C@H](C)NC(=O)[C@H](Cc2c[nH]c3ccccc23)NC(=O)[C@H](Cc2ccc(O)cc2)NC(=O)[C@H](Cc2c[nH]cn2)NC1=O)[C@@H](C)O,78.4%
5,CC(=O)N[C@@H](CC(C)C)C(=O)N[C@H](C(=O)N[C@@H](Cc1ccccc1)C(=O)N[C@]1(C)CCCCCCCCCCC[C@@](C)(C(=O)N[C@@H](CO)C(N)=O)NC(=O)[C@H](CC(C)C)NC(=O)[C@H](CCC(N)=O)NC(=O)[C@H](C)NC(=O)[C@H](Cc2c[nH]c3cc(Cl)ccc23)NC(=O)[C@H](Cc2ccc(O)cc2)NC(=O)[C@H](Cc2c[nH]cn2)NC1=O)[C@@H](C)O,69.5%
6,CC(=O)N[C@@H](CC(C)C)C(=O)N[C@H](C(=O)N[C@@H](Cc1ccccc1)C(=O)N[C@]1(C)CCCCCCCCCCC[C@@](C)(C(=O)N[C@@H](CO)C(N)=O)NC(=O)[C@H](CC(C)C)NC(=O)[C@H](CCC(N)=O)NC(=O)[C@H](CCCNC(=N)N)NC(=O)[C@H](Cc2c[nH]c3cc(Cl)ccc23)NC(=O)[C@H](Cc2ccc(O)cc2)NC(=O)[C@H](Cc2c[nH]cn2)NC1=O)[C@@H](C)O,74.2%
7,CC(=O)N[C@@H](CCC(N)=O)C(=O)N[C@@H](CO)C(=O)N[C@@H](CCC(N)=O)C(=O)N[C@@H](CCC(N)=O)C(=O)N[C@H](C(=O)N[C@@H](Cc1ccccc1)C(=O)N[C@@H]1CCCCCCC=CCCC[C@@H](C(=O)N[C@@H](CCC(N)=O)C(=O)N[C@@H](CC(N)=O)C(N)=O)NC(=O)[C@H](CC(C)C)NC(=O)[C@H](CC(C)C)NC(=O)[C@H](CCCNC(=N)N)NC(=O)[C@H](Cc2c[nH]c3ccccc23)NC(=O)[C@H](CC(C)C)NC(=O)[C@H](CC(N)=O)NC1=O)[C@@H](C)O,50.5%
8,CC(=O)N[C@@H](CCC(N)=O)C(=O)N[C@@H](CO)C(=O)N[C@@H](CCC(N)=O)C(=O)N[C@@H](CCC(N)=O)C(=O)N[C@H](C(=O)N[C@@H](Cc1ccccc1)C(=O)N[C@]1(C)CCCCCCCCCCC[C@@](C)(C(=O)N[C@@H](CCC(N)=O)C(=O)N[C@@H](CC(N)=O)C(N)=O)NC(=O)[C@H](CC(C)C)NC(=O)[C@H](CC(C)C)NC(=O)[C@H](CCCNC(=N)N)NC(=O)[C@H](Cc2c[nH]c3cc(Cl)ccc23)NC(=O)[C@H](CC(C)C)NC(=O)[C@H](CC(N)=O)NC1=O)[C@@H](C)O,92.4%
9,CC(=O)N[C@@H](CCC(N)=O)C(=O)N[C@@H](CO)C(=O)N[C@@H](CCC(N)=O)C(=O)N[C@@H](CCC(N)=O)C(=O)N[C@H](C(=O)N[C@@H](Cc1ccccc1)C(=O)N[C@]1(C)CCCCCCCCCCC[C@@](C)(C(=O)N[C@@H](CCC(N)=O)C(=O)N[C@@H](CC(N)=O)C(N)=O)NC(=O)[C@H](CC(C)C)NC(=O)[C@H](CC(C)C)NC(=O)[C@H](CCCNC(=N)N)NC(=O)[C@](C)(Cc2c[nH]c3cc(Cl)ccc23)NC(=O)[C@H](CC(C)C)NC(=O)[C@H](CC(N)=O)NC1=O)[C@@H](C)O,62.4%
10,CC(=O)N[C@@H](CCC(N)=O)C(=O)N[C@@H](CO)C(=O)N[C@@]1(C)CCCCCCCCC2(CCCCCCCCCCC[C@@](C)(C(=O)N[C@@H](CCC(N)=O)C(=O)N[C@@H](CC(N)=O)C(N)=O)NC(=O)[C@H](CC(C)C)NC(=O)[C@H](CC(C)C)NC(=O)[C@H](CCCNC(=N)N)NC(=O)[C@H](Cc3c[nH]c4ccccc34)NC(=O)[C@H](CC(C)C)NC(=O)[C@H](CC(N)=O)NC2=O)NC(=O)[C@H](Cc2ccccc2)NC(=O)[C@H]([C@@H](C)O)NC(=O)[C@H](CCC(N)=O)NC1=O (some centres unmarked),96%
11,CC(=O)N[C@@H](CCC(N)=O)C(=O)N[C@@H](CO)C(=O)N[C@]1(C)CCCC=CCCCC2(CCCC=CCCC[C@@](C)(C(=O)N[C@@H](CC(C)C)C(=O)N[C@@H](CC(C)C)C(=O)NC(C)(C)C(=O)N[C@@H](CCC(N)=O)C(=O)N[C@@H](CC(N)=O)C(N)=O)NC(=O)[C@H](Cc3c[nH]c4ccccc34)NC(=O)[C@H](CC(C)C)NC(=O)[C@H](CC(N)=O)NC2=O)NC(=O)[C@H](Cc2ccccc2)NC(=O)[C@H]([C@@H](C)O)NC(=O)[C@H](CCC(N)=O)NC1=O (some centres unmarked),0%
12,CC(=O)N[C@H](C(=O)N[C@@H](CO)C(=O)N[C@@H](Cc1ccccc1)C(=O)N[C@]1(C)CCCCCCCCCCC[C@@](C)(C(=O)N2CCC[C@H]2C(N)=O)NC(=O)[C@H](CC(C)C)NC(=O)[C@H](CC(C)C)NC(=O)[C@H](CC(N)=O)NC(=O)[C@H](Cc2c[nH]c3ccccc23)NC(=O)[C@H](Cc2ccc(O)cc2)NC(=O)[C@H](CCC(N)=O)NC1=O)[C@@H](C)O,2.6%
13,CC(=O)N[C@]1(C)CCCCCCCCCCC[C@@](C)(C(=O)N[C@@H](CC(C)C)C(=O)N[C@@H](Cc2c[nH]c3ccccc23)C(=O)N[C@@H](CCCNC(=N)N)C(=O)N[C@@H](CC(C)C)C(=O)N[C@@H](CC(C)C)C(=O)NC(C)(C)C(=O)N[C@@H](CCC(N)=O)C(=O)N[C@@H](CC(N)=O)C(N)=O)NC(=O)[C@H](CO)NC(=O)[C@H](Cc2ccccc2)NC(=O)[C@H]([C@@H](C)O)NC(=O)[C@H](CCC(N)=O)NC(=O)[C@H](CCC(N)=O)NC(=O)[C@H](CO)NC1=O,66.7%
14,CCCC[C@@H]1NC(=O)[C@H](CCCNC(=N)N)NC(=O)[C@H](Cc2c[nH]c3ccccc23)NC(=O)[C@H](CC(C)C)NC(=O)[C@H](CC(N)=O)NC(=O)[C@](C)(NC(=O)[C@H](Cc2ccccc2)NC(=O)[C@@H](NC(=O)[C@H](CCC(N)=O)NC(=O)[C@H](CCC(N)=O)NC(=O)[C@H](CO)NC(=O)[C@H](CCC(N)=O)NC(C)=O)[C@@H](C)O)CCCCCCCCCCC[C@@](C)(C(=O)N[C@@H](CCC(N)=O)C(=O)N[C@@H](CC(N)=O)C(N)=O)NC(=O)[C@H](CC(C)C)NC1=O,84.7%
15,CCCC[C@H](NC(C)=O)C(=O)N1CCC[C@H]1C(=O)N[C@@H](CCCNC(=N)N)C(=O)N[C@@H](Cc1ccccc1)C(=O)N[C@]1(C)CCCCCCCCCCC[C@@](C)(C(=O)N[C@@H](CCC(N)=O)C(=O)N[C@@H](CC(N)=O)C(N)=O)NC(=O)[C@H](CC(C)C)NC(=O)[C@H](CC(C)C)NC(=O)[C@H](CCCNC(=N)N)NC(=O)[C@H](Cc2c[nH]c3ccccc23)NC(=O)[C@H](Cc2ccc(O)cc2)NC(=O)[C@H](CC(N)=O)NC1=O,61.6%
16,CC(=O)N[C@@H](C)C(=O)N[C@@H](C)C(=O)N[C@@H](C)C(=O)N[C@@H](CCCNC(=N)N)C(=O)N[C@@H](C)C(=O)N[C@@H](C)C(=O)N[C@]1(C)CCCCCCC=CCCC[C@@](C)(C(=O)N[C@@H](C)C(=O)N[C@@H](C)C(N)=O)NC(=O)[C@H](C)NC(=O)[C@H](C)NC(=O)[C@H](CCCNC(=N)N)NC(=O)[C@H](C)NC(=O)[C@H](C)NC(=O)[C@H](C)NC1=O (Ac-AAARAA[R8]AAARAA[S5]AA-NH2; staple 7-14),131%
17,CSCC[C@H](NC(=O)[C@H](Cc1ccccc1)NC(C)=O)C(=O)NC(C)(C)C(=O)N[C@@H](Cc1ccc(O)cc1)C(=O)N[C@@H](Cc1c[nH]c2cc(Cl)ccc12)C(=O)N[C@@H](CCC(=O)O)C(=O)NC1(C(=O)N[C@@H](CC(C)C)C(N)=O)CC1 (Ac-FM[Aib]Y[Trp(6-Cl)]E[Ac3c]L-NH2),-3.6%
18,CC(=O)N[C@@H](CC(C)C)C(=O)N[C@H](C(=O)N[C@@H](Cc1ccccc1)C(=O)N[C@]1(C)CCCCCCC=CCCC[C@@](C)(C(=O)N[C@@H](CO)C(N)=O)NC(=O)[C@H](CC(C)C)NC(=O)[C@H](CCC(N)=O)NC(=O)[C@H](CCCNC(=N)N)NC(=O)[C@H](Cc2c[nH]c3ccccc23)NC(=O)[C@H](Cc2ccc(O)cc2)NC(=O)[C@H](Cc2c[nH]cn2)NC1=O)[C@@H](C)O (Ac-LTF[R8]HYWRQL[S5]S-NH2; staple 4-11),59.5%
19,CC(=O)N[C@@H](CCC(N)=O)C(=O)N[C@@H](CO)C(=O)N[C@@H](CCC(N)=O)C(=O)N[C@@H](CCC(N)=O)C(=O)N[C@H](C(=O)N[C@@H](Cc1ccccc1)C(=O)N[C@]1(C)CCCCCCC=CCCC[C@@](C)(C(=O)N[C@@H](CCC(N)=O)C(N)=O)NC(=O)[C@H](CC(C)C)NC(=O)[C@H](CC(C)C)NC(=O)[C@H](CCCNC(=N)N)NC(=O)[C@H](Cc2c[nH]c3ccccc23)NC(=O)[C@H](CC(C)C)NC(=O)[C@H](CC(N)=O)NC1=O)[C@@H](C)O (Ac-QSQQTF[R8]NLWRLL[S5]Q-NH2; staple 7-14),77.8%
20,CC(=O)N[C@@H](CCC(N)=O)C(=O)N[C@@H](CO)C(=O)N[C@@H](CCC(N)=O)C(=O)N[C@@H](CCC(N)=O)C(=O)N[C@H](C(=O)N[C@@H](Cc1ccccc1)C(=O)N[C@]1(C)CCCCCCC=CCCC[C@@](C)(C(=O)N[C@@H](CCC(N)=O)C(=O)N[C@@H](CC(N)=O)C(N)=O)NC(=O)[C@H](CC(C)C)NC(=O)[C@H](CC(C)C)NC(=O)[C@H](CCCNC(=N)N)NC(=O)[C@](C)(Cc2c[nH]c3cc(Cl)ccc23)NC(=O)[C@H](CC(C)C)NC(=O)[C@H](CC(N)=O)NC1=O)[C@@H](C)O (Ac-QSQQTF[R8]NL[X2]RLL[S5]QN-NH2; staple 7-14),60.9%
